# Measured values: US20200271651
# T1: FluHSA2 fluorogenic peptide
# T1 chain: TKCATESAVNRRPCFSALK
# T2: fluorescent labeled elastin protein (5-Fam-QXL520 labeled-elastin), P15502
# T2 chain: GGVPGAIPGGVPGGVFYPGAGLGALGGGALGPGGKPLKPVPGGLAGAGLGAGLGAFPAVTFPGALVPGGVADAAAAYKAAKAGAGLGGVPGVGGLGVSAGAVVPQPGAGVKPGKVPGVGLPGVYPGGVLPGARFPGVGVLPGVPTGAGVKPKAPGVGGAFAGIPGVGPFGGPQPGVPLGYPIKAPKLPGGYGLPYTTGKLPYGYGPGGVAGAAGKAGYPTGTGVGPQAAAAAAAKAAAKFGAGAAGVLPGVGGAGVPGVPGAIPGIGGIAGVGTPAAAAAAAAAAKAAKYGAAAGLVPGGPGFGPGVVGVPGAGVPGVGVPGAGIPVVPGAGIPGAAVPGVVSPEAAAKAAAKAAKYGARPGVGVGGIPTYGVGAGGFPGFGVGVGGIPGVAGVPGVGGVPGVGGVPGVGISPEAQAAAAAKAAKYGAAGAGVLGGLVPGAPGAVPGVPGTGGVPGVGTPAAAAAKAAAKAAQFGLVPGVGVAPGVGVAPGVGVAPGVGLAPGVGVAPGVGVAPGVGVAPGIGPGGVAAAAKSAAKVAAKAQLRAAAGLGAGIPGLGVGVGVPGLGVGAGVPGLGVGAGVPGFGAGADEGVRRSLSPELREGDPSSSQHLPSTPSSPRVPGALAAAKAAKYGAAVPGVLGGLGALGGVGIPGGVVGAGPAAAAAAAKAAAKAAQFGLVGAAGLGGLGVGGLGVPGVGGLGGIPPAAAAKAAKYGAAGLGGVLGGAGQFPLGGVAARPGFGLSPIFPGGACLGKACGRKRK
# B1: native Asp f2 (glycosylated form) of Aspergillus fumigatus (protein)
# chain: ATPHEPVFFSWDAGAVTSFPIHSSCNATQRRQIEAGLNEAVELARHAKAHILRWGNESEIYRKYFGNRPTMEAVGAYDVIVNGDKANVLFRCDNPDGNCALEGWGGHWRGANATSETVICDRSYTTRRWLVSMCSQGYTVAGSETNTFWASDLMHRLYHVPAVGQGWVDHFADGYDEVIALAKSNGTESTHDSEALQYFALEAYAFDIAAPGVGCAGESHGPDQGHDTGSASAPASTSTSSSSSGSGSGATTTPTDSPSATIDVPSNCHTHEGGQLHCT
# B2: active recombinant Asp f2 (residues 32-310) (protein)
# chain: B1 chain
# Assays:
# [1] = biological target: T1, FluHSA2 fluorogenic peptide
# [2] = biological target: T2, fluorescent labeled elastin protein …
Protein,"cleavage of FluHSA2 (10 uM, 16 hours at 22 C; fluorescence), native Asp f2 on anti-Asp f2-immobilized beads [1]","cleavage of FluHSA2 (fluorescence, Ex 485 nm/Em 535 nm), Asp f2 captured on 5D7A1-bound beads [1]","degradation of FITC conjugated collagen (15 ug/mL; fluorescence), native Asp f2 on 5D7A1-bound beads (FITC conjugated collagen)","degradation of 5-Fam-QXL520 labeled elastin (fluorescence), native Asp f2 on 5D7A1-bound beads [2]"
B1,FluHSA2 was found to exhibit high specificity for cleavage by Asp f2 compared with Asp f3,both native and recombinant Asp f2 cleave the FluHSA2 substrate,native Asp f2 is also capable of degrading the human proteins collagen and elastin,native Asp f2 is also capable of degrading the human proteins collagen and elastin
B2,,both native and recombinant Asp f2 cleave the FluHSA2 substrate,,
